Test results reported in publication PMC4114559, “Pigment Dispersing Factor Regulates Ecdysone Biosynthesis via Bombyx Neuropeptide G Protein Coupled Receptor-B2 in the Prothoracic Glands of Bombyx mori” (PLoS ONE, 2014).

Legend:
PGs of B. mori = assay: Intracellular cAMP level in cultured PGs; assay type: cell-based, Bombyx mori; details: Ca2+-free lepidopteran saline, n = 4–8
Protocol: (§1) Dissected PGs were rinsed with Grace's insect culture medium (Gibco) and pre-cultured individually in 100 µl medium in 96-well plates (BD Falcon) at 25°C for 30 min. To evaluate the effect of extracellular Ca^2+ on ecdysone biosynthesis, lepidopteran saline and lepidopteran saline using NaCl as a replacement for CaCl2 were used. For the pharmacological analysis, the PG was pre-treated with the inhibitor for 15 min during the pre-culture period. Following this treatment, the PG was cultured in the desired conditions for the desired period (Ecdysone assay: 3 hours; cAMP assay: 30 min; and Protein phosphorylation assay: 15 min). Actinomycin D, H-89 and cycloheximide (CHX) were purchased from Sigma; Rapamycin was purchased from Santa Cruz Biotechnology; and LY294002 was purchased from Merck. H-89 was dissolved in water. The other inhibitors were dissolved in DMSO. […]
HEK293 cells were transfected with an empty mammalian expression vector (pME18S) or the full-length BNGR-B2 ORF inserted into the pME18S vector (BNGR-B2/pME18S) using Lipofectamine LTX with PLUS reagent (Invitrogen) according to the manufacturer's instructions. […] The luminescence was measured with a Wallac ARVO SX 1420 Multilabel Counter (PerkinElmer).
Figure 3 Prothoracicotropic activities of PDF in vitro. […] Statistically significant differences were evaluated by Student's t-test (***P<0.001, **P<0.01, *P<0.05).

4E-BP = assay: p-4E-BP level in cultured PGs (Western blot); assay type: cell-based, Bombyx mori; details: cultured PGs, 15 min; immunoblotting
Protocol: as §1, with “min).” for “min). Actinomycin D, H-89 and cycloheximide (CHX) were purchased from Sigma; Rapamycin was purchased from Santa Cruz Biotechnology; and LY294002 was purchased from Merck. H-89 was dissolved in water. The other inhibitors were dissolved in DMSO.”
Dissected PGs were pre-cultured in Grace's culture medium for 30 min, then cultured with or without PDF or PTTH for 15 min. The cultured PGs were sonicated in 50 mM Tris-HCl (pH 6.8) with protease inhibitor cocktail (Complete, Roche) and phosphatase inhibitor cocktail (Wako), lysed in 1x SDS sample buffer excluding 2-mercaptoethanol (2ME) and bromophenol blue (BPB), and the protein concentration was measured using the BCA protein assay kit (Pierce). […]
Figure 4 Signaling pathways involved in PDF-induced ecdysone biosynthesis. […] The transcript levels of nvd, nm-g, spo, phm, dib and sad were quantified with Q-PCR. […] Statistically significant differences were evaluated by Student's t-test (***P<0.001, **P<0.01). […]

B1: PTTH: prothoracicotropic hormone, humoral pathway-mediated tropic hormone (protein, UniProt P17219 116-224, looked up)
Prothoracicotropic hormone: GNIQVENQAIPDPPCTCKYKKEIEDLGENSVPRFIETRNCNKTQQPTCRPPYICKESLYSITILKRRETKSQESLEIPNELKYRWVAESHPVSVACLCTRDYQLRYNNN
modifications: Prothoracicotropic hormone
B1 was tested, and the “effect of Ca2+ depletion on induced upregulation of intracellular cAMP levels” value (PGs of B. mori) was “suppressed PTTH-induced upregulation of intracellular cAMP levels” and the “level of p-4E-BP” value (4E-BP) was “upregulated by both PDF and PTTH”.
